Assay results taken from paper PMC11505469.
pKd: −log10 of the molar value.

Legend:
Human FcRn = assay: SPR
CD3εδ = assay: SPR

pKd (Human FcRn): 6.62 | pKd (CD3εδ): 7.39
Substance: ISB 2001 (from UniProt P01857)
